Assay results published in patent US20030216563.

What was measured:
[1] = target: GST:Weel^152
[2] = target: GST:Weel^70
Chain of GST:Weel^70 (chain, as listed by the source): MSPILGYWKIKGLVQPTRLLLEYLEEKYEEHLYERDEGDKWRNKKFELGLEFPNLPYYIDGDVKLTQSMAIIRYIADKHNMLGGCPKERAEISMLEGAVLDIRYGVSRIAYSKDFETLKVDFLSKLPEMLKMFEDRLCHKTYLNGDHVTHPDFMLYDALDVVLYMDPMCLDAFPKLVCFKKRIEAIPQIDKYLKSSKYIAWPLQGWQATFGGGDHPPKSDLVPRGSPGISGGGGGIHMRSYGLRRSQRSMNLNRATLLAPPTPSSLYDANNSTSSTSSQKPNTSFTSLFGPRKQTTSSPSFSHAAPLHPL

Chain of GST:Weel^152 (chain, as listed by the source): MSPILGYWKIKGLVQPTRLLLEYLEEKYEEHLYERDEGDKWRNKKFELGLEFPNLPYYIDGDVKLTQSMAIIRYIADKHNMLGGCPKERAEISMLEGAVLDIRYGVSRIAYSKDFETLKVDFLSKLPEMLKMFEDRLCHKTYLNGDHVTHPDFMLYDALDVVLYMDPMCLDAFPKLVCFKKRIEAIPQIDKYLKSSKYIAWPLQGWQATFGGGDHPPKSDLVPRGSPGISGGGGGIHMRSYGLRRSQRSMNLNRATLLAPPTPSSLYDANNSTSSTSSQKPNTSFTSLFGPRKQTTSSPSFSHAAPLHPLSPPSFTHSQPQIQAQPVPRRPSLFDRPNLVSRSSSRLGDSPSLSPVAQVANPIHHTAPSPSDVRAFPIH

B1: Cds1 (protein)
chain: MEEPEEATQATQEAPLHVSQNIAKQVVNNENVFMKLVMTRMLDGKTEVIPLTTDVHNGFWRFGRHKSCEVVLNGPRVSNFHFEIYQGHRNDSDESENVVFLHDHSSNGTFLNFERLAKNSRTILSNGDEIRIGLGVPKDEISFLCQVPVKHSRDSQKNMIKSENSHYEIIRTLGSGTFAVVKLAVEVNSGKWYAIKIINKRKILLTSSEKRATEMFQREIDILKSLHHPGVVQCHEIFENDDELFIVMEYVEGGDLMDFLIANGSIDEQDCKPLLKQLLETLLHLHKQGVTHRDIKPENILITNDFHLKISDFGLAKVIHGTGTFLETFCGTMGYLAPEVLKSKNVNLDGGYDDKVDIWSLGCVLYVMLTASIPFASSSQAKCIELISKGAYPIEPLLENEISEEGIDLINRMLEINPEKRISESEALQHPWFYTVSTHEHRTPPSSSEHEATEQLNSSS
- phosphorylation by bead-associated kinase with [gamma-32P]ATP [1]: GST:Weel^152 is phosphorylated by this kinase and another that is active prior to HU treatment
- in vitro phosphorylation, two-dimensional tryptic phosphopeptide map [2]: Cds1 purified from fission yeast phosphorylated GST:Weel^70 in vitro, producing a two-dimensional tryptic phosphopeptide map that was identical to a map made from GST:Weel^70 phosphorylated by its associated kinase
